Measured values taken from article PMC4614378, “A cancer-associated mutation inactivates a region of the high-mobility group protein HMG20b essential for cytokinesis” (Cell Cycle, 2014).
No end group written: not given here.

What was measured:
Assay in all cases: pull-down; 1 nmol biotinylated BRC5 peptide on Dynabeads M-280 Streptavidin, 100 pmol purified HMG20b fragment; 50mM Tris-HCl pH 7.4, 150mM NaCl, 1% NP-40, 5mM EDTA, 10mM NaF, 0.1% BSA; 30 minutes at room temperature; Coomassie staining
Conditions in all cases: both partners purified
[1] = molecular target: T1, HMG20b fragment aa113-317 with C-terminal 6xHis tag (human, UniProt Q9P0W2 113-317)
T1 construct: cloned in pET21a; source: E. coli BL21 (DE3), purified (Ni-NTA agarose)
T1 sequence (looked up): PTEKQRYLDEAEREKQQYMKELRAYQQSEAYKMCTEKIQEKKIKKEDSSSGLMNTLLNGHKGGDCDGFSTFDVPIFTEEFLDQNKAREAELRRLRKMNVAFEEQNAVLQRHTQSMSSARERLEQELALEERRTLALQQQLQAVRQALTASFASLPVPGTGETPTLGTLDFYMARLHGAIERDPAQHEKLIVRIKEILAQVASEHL

[2] = molecular target: T2, full-length HMG20b with C-terminal 6xHis tag (human, UniProt Q9P0W2 1-317)
T2 construct: cloned in pET21a; also called His-HMG20b; source: E. coli BL21 (DE3), purified (Ni-NTA agarose)
T2 sequence (looked up): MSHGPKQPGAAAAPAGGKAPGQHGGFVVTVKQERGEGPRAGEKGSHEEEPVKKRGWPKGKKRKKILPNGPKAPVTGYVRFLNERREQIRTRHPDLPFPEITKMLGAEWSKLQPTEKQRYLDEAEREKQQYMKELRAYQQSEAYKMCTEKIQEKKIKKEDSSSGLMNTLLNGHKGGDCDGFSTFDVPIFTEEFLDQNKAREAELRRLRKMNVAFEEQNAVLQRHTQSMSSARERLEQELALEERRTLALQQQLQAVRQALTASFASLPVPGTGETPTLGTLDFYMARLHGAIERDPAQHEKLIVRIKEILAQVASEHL

[3] = molecular target: T3, HMG20b fragment aa173-317 with C-terminal 6xHis tag (human, UniProt Q9P0W2 173-317)
T3 construct: cloned in pET21a; also called C-terminal fragment; source: E. coli BL21 (DE3), purified (Ni-NTA agarose)
T3 sequence (looked up): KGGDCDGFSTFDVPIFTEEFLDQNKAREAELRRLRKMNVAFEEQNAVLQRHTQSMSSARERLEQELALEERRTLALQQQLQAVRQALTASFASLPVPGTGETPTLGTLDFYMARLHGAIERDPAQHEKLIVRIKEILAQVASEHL

[4] = molecular target: T4, HMG20b fragment aa173-276 with C-terminal 6xHis tag (human, UniProt Q9P0W2 173-276)
T4 construct: cloned in pET21a; also called C-terminal Δ1; source: E. coli BL21 (DE3), purified (Ni-NTA agarose)
T4 sequence (looked up): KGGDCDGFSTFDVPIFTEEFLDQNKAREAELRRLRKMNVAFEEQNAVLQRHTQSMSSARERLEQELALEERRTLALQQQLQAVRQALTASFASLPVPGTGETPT

Measured: binding result

B1: Biotinylated BRC5 peptide (BRCA2 amino acid residues 1661-1695) (peptide, UniProt P51587 1661-1695, looked up)
peptide: YSVIENSALAFYTSCSRKTSVSQTSLLEAKKWLRE
modifications: also: biotinylated (position not given here)
notes: BRCA2, human, BRC5 repeat motif, residues 1661-1695; also called Biotin-BRC5 peptide; BRC5 repeat; source: synthetic peptide (Cambridge Research Biochemicals)
binds: [1] | [2] | [3] | [4]
